Molecular target: ATF4 (human (ORF from 293 cells), UniProt P18848 1-351)
Assay: EMSA; 1.2 uM ATF4, 3 nM probe; excess unlabeled probe competes completely; supershift with anti-ATF4 at 0.7 uM ATF4; 20 ul EMSA, 3 nM DIG-labeled probe, Roche kit instructions; buffer, salt, pH and temperature not stated
Conditions: protein: recombinant; tags: His-tag; chain copies: 2; label: DIG; blunt

Sequence of ATF4 (P18848 whole entry): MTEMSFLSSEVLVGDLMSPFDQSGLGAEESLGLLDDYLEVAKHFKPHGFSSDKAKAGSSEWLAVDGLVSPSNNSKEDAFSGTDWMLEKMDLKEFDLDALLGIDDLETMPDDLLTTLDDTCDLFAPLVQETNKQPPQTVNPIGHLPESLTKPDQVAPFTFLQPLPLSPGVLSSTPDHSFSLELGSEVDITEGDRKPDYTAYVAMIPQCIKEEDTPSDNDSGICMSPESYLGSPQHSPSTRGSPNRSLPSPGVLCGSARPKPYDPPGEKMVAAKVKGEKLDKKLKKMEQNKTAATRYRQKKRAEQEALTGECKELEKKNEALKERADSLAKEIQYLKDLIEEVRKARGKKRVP

B1: APOE promoter -491A probe (-521 to -461) (dsDNA)
DNA 1: GTTTCACCATGTTGGCCAGGCTGGTCTCAAACTCCTGACCTTAAGTGATTCGCCCACTGTG
DNA 2: CACAGTGGGCGAATCACTTAAGGTCAGGAGTTTGAGACCAGCCTGGCCAACATGGTGAAAC
B1: binds.

Source: paper PMC3196492, “APOE Genotype-Function Relationship: Evidence of −491 A/T Promoter Polymorphism Modifying Transcription Control but Not Type 2 Diabetes Risk”
